Laboratory results taken from the DeepSol protein solubility set.

Assay: soluble on expression in E. coli; label from the status in PepcDB or PDB records

| Sequence | soluble on expression in E. coli |
| --- | --- |
| LQKVFDNTVVQNSDIKKFNESKLIKPNLMQEHALKSLESLRNVGEEKGLIISATGTGKTILCALDVRAYSPDKFLFIVHNEGILNRAIEEFKKVFPYEDESNFGLLTGKRKDHDAKFLFATIQTLSKKENYKLFNSNHFDYIVFDEAHRIAASSYQKIFNYFKPNFLLGMTATPERTDELNIFE | not soluble |
| LRTITRDDWETCIDLKVARHQAHFVASNLYSLAQSRFLPGFRAVGIHHGGRMVGFALYGPDADDGHYWLYRLMIDRRYQGKGHGRAALQRIIASVRRTRRRSDRLMVAYAVDNDVARQLYRDAGFVEQGLAPWGETMACLMLPEPSHRSGKVAGAPGGRAAHGVPA | not soluble |
| LSFYHPEDRETVSDAVDAALNDGDPYDLEVRLITARGNHRWVRTRGKRVEGAEKPTVRGFIQDITEQKER | not soluble |
| LSITTPEQRIEKAKGETAYLPCKFTLSPEDQGPLDIEWLISPSDNQIVDQVIILYSGDKIYDNYYPDLKGRVHFTSNDVKSGDASINVTNLQLSDIGTYQCKVKKAPGVANKKFLLTVLVKPSGTRCFVDGSEEIGNDFKLKCEPKEGSLPLQFEWQKLSDSQTMPTPWLAEMTSPVISVKNASSEYSGTYSCTVQNRVGSDQCMLRLDVVPPS | soluble |
| LSYHVIGPLRELTSTARRLGRGELDARVTYSGEDELAQLGERFNQMAGELKSIYGDLEERVEDKTRALSQSHQRLELLYASARRLGENPYDSRTLQPLLNQLEKVLDAGRVTLCLNKDGVERAYSSLTTTERPADFCLQGDCGSCREQASACDQPSSLAQPLLMQPLSIAGHRFGELFIESRSGRLENWQQQLIETFCDNIARTFALSLQQEQESRLALFAERGTIARELHDSLAQSLSYLKIQVSRLGTLLKREAPAEKIEDTLDELREGLNGAYRQLRELLTTFRLSLDEPSLEAALGNAVAEFGERGEVTIELDNRLQHVPLSPNEEIHVLQIVREALSNVVRHSQAQRAWVRLSSQADGQVSIAVEDDGVGFDPQQNRSGHYGLTIMQERGQTLGSQLRFEARAPHGTRVLFSFVPTALQP | not soluble |
| LTGPQLAVVGSRQPSPYALRAMRRLLPQVVRQQVCLVSGLAQGVDTLAHQAALAHRGKTIAVIGTGLDHCYPAGNRDLMTELAHHHLVISEYPWGTAGARHHFPERNRIIAGLSQSTLVVEAARHSGSLITANIALQENRNVLAVPGSLDNPNSVGTNELILAGAKPILNSEHIIEEVLVDKRL | not soluble |
| LVERDSFVNALRESERRYRNIIETASEGILIIDSEVRISYANKKMTDMLGCPLEEVTGRKMCDFVSEESKDIVKLNQKRRRQGINDSYELKLVCKDGSSLWALVNAKSLFDKDGKFMGSISLLTDIT | not soluble |
| LYPEEILDTHWELWKKTHRKQYNNKVDEISRRLIWEKNLKYISIHNLEASLGVHTYELAMNHLGDMTSEEVVQKMTGLKVPLSHSRSNDTLYIPEWEGRAPDSVDYRKKGYVTPVKNQGQCGSCWAFSSVGALEGQLKKKTGKLLNLSPQNLVDCVSENDGCGGGYMTNAFQYVQKNRGIDSEDAYPYVGQEESCMYNPTGKAAKCRGYREIPEGNEKALKRAVARVGPVSVAIDASLTSFQFYSKGVYYDESCNSDNLNHAVLAVGYGIQKGNKHWIIKNSWGENWGNKGYILMARNKNNACGIANLASFPKM | soluble |
| MAAALKPSAPEIRKAAQEFINYLNKAVTPFHATQEVKDRLLQAGFTELPESGHWDIQPTSKYFVTKNRSAILAFAVGGSYKPGSGFSIVVGHTDSPCLRVKPISHQKSDKFLQVGVSTYGGGIWRTWFDRDLSVAGLVIVKNGEKLQHKLIDVKKPVLFIPNLAIHLETDRTTFKPNTETELRPILETFAAAGINAPQKPESTGFADPRNITNNHHPQFLGLIAKEAGCQPEDIVDLDLYLYDTNKAAIVGMEDEFISGARLDNQVGTYTAISGLLESLTGESFKNDPQIRIAACFDNEEVGSDSAMGASSSFTEFVLRRLSAGGSTTAFEEAIGKSMLISADQAHATHPNYSAKHEENHRPAFHGGVVVKVNVNQRYATTSTTHAALKQVAFEAQVPLQVVVVRNDSPCGSTVGPILATKLGLQTVDVGCPQLAMHSIREFADTSSIYQATTLYSTFYERLSTVLSNMQ | not soluble |
